Measured values published in the supplement of paper PMC10567573.
± gives the standard deviation.

Experiment: protein stability index of a GFP-peptide fusion (GPS, HEK-293T) (PSI 1-6); higher = more stable
[1] = treatment: DMSO, c terminus: a fixed tail appended
[2] = treatment: MLN4924 1 uM, 8 h, c terminus: a fixed tail appended
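Note: 24-mer peptide tiles fused after GFP, lentivirally expressed, FACS-sorted into six equal bins by GFP/DsRed ratio, decoded by Illumina sequencing, PSI is the read-weighted mean bin number.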

Sequence	protein stability index [1]	protein stability index [2]	protein stability index (treatment: DMSO, c terminus: native)	protein stability index (treatment: MLN4924 1 uM, 8 h, c terminus: native)
FFHLSALKGYLYAVGGRNAAGELP [KLHL13]	2.56 ± 0.62	2.27 ± 0.26		
FTETNNHWPQGPTGPPGPPGPMGP [EMID1]	2.58 ± 0.28	3.4 ± 0.5		
HKPLLICSCEWMAAMFGGSFVESA [RHOBTB1]	2.72 ± 0.79	2.46 ± 0.85		
TVNALEIELQAQHSMRNSLESTLA [KRT36]	3.38 ± 0.31	3.38 ± 0.29		
GEWGGRHPSWPWTRCLRMRPPRS			2.81 ± 0.6	2.88 ± 0.36
NRRLQLLEEENKERAKREMVMYSI [MFF]	3.96 ± 0.19	3.6 ± 0.13		
RVGQLQEALNERHSIINALKAKLQ [LRRC45]	2.45 ± 0.43	2.46 ± 0.3		
GAPLLPPPLPPPSPPGSGRGPGAS [ACBD3]	5.23 ± 0.21	5.108 ± 0.027		
SGVSDYDYLDLDKMSLYSEADSGY [TRIM9]	4.14 ± 0.19	3.76 ± 0.46		
TPAPMSSAWKTVACGGTRDQLFMQ [MYBL2]	2.75 ± 0.17	2.69 ± 0.3		
HPVCSLCWSRDGHKLVSASTDNIV [RBBP5]	2.72 ± 0.28	2.95 ± 0.44		
FQVVKDAVLDCLLDFLPKDVKKEK [TENT5D]	5.16 ± 0.18	4.95 ± 0.23		
FKNSLLQKELKKAQMAKAAAEERA [WEE1]	4.37 ± 0.15	4.34 ± 0.087		
ASLLPSARLASPLPREEEIVFPEK [ADAMTS4]	4.7 ± 0.63	4.97 ± 0.46		
HMVSDGSWVVRVQAAKLLGSMEQV [INTS4]	2.48 ± 0.74	2.1 ± 0.21		
FWPHLKASNWSTTGFGQGQGYTIN [HDAC6]	2.38 ± 0.32	2.64 ± 0.17		
YAELGQCSVFPATDAPEQFISQVT [PLK2]	2.67 ± 0.16	3.04 ± 0.41		
MMYSAELWRYRTITFSGRPSRVHA [FBXO39]	2.23 ± 0.091	2.46 ± 0.2		
MFRNHLCLVFELLSYNLYDLLRNT [DYRK1B]	2.54 ± 0.23	2.85 ± 0.72		
QGEMDRKCKQVKEKCKEEFVEEIK [ZMYND11]	4.91 ± 0.32	5.43 ± 0.24		
IAKAEETHSSLSQELQARLQTVTR [CCDC89]	4.25 ± 0.088	4.13 ± 0.2		
TKLLNDEDQVVVNKAAVMVHQLSK [CTNNB1]	3.6 ± 0.19	3.57 ± 0.4		
NYVAKNFAQALGCVLYACFILGRL [SOAT2]	3.46 ± 0.38	2.85 ± 0.38		

Sequence	protein stability index [1]	protein stability index [2]	protein stability index (treatment: DMSO, c terminus: native)	protein stability index (treatment: MLN4924 1 uM, 8 h, c terminus: native)
PISVHCSAGVGRTGVFITLSIVLE [PTPRD]	2.96 ± 0.26	2.6 ± 0.21		
GLRAGFSSTSYRRTFGPPPSLSPG [PRPH]	2.62 ± 0.24	2.93 ± 0.15		
DSSSSCSDHCITSSDMMDSSSFSN [VDR]	4.94 ± 0.28	5.01 ± 0.27		
DVCISILHPPVDDPQSGELPSERW [CDC34]	3.9 ± 0.28	4.01 ± 0.24		
LNSVERYDPKTNQWSSDVAPTSTC [KLHL20]	4.18 ± 0.097	4.24 ± 0.43		
YWKLQIFFTNVIQALGEHLKLRQQ [CCNC]	2.66 ± 0.84	2.46 ± 0.38		
NNADLCLTDDKQVLNTQGQKTSGQ [DLC1]	5.18 ± 0.27	5.16 ± 0.23		
EVRAKFKFSLLNAKREETKAMESQ [SPOPL]	4.06 ± 0.29	3.97 ± 0.33		
RFPYLCQKNGGGAYLVPYLVLLII [SLC6A17]	2.64 ± 1.1	2.49 ± 0.94		
KAASLARNLAKRRRTYLGGAAGRS [RSPH3]	3.09 ± 0.34	3.56 ± 0.45		
LVVILLSIVAVGFHIFRTLEVNRL [PKD2L1]	3.44 ± 0.88	3.12 ± 0.23		
KEGDCAPEEKIWEELSVLEVFEGR [MAGEA6]	4.96 ± 0.16	4.87 ± 0.47		
TVGLLWFAHHSLFLHVRKATRAMG [TMEM175]	2.46 ± 0.15	2.42 ± 0.39		
KTSVEKANAQIQILTRSWEEVSTL [CD207]	3.48 ± 0.14	3.77 ± 0.26		
GQDKQFAWHCSESGQRLGGYRTSA [WDFY2]	3.51 ± 0.24	3.24 ± 0.28		
RTIYHMFIAGLCVFIISTLAIDFI [SOAT2]	3.14 ± 0.56	2.96 ± 0.67		
EEDNELNLPNLAAAYSSILSSLGE [GCH1]	3.68 ± 0.31	3.73 ± 0.16		
LSTLLAPYQALRLWARGTWTQATG [SOAT2]	2.4 ± 0.55	2.08 ± 0.55		
KQPRKKRGRYRQYNSEILEEAISV [LCOR]	3.92 ± 0.16	3.98 ± 0.13		
TSWSQHCPWEPQKQPPWEFLQVLE [SPAG8]	2.31 ± 0.13	2.55 ± 0.29		
IVSTQITRPSGNNGNRRRRKLRKT [PHTF1]	4.35 ± 0.35	4.46 ± 0.23		
MTGAYNNFFRMFDRNTKRDVTLEA [PPP2R2C]	3.03 ± 0.45	3.14 ± 0.33		
PTYSDFCQFRPPVRVNDGGGSHPS [VDR]	3.9 ± 0.25	4.03 ± 0.18		

Sequence	protein stability index [1]	protein stability index [2]	protein stability index (treatment: DMSO, c terminus: native)	protein stability index (treatment: MLN4924 1 uM, 8 h, c terminus: native)
QSRANGVKYPELVLEHSLDREEEA [PCDHGA10]	5.29 ± 0.12	5.31 ± 0.15		
LLNAASTVARPVFTEYQASAFGNV [RHOBTB3]	2.48 ± 0.21	2.72 ± 0.31		
SLRQKQPERLCSGPGIVGNVLVDP [GMPPB]	3.65 ± 0.2	3.46 ± 0.15		
LEDSTMGSVADTVARVLRGCLENM [PLK2]	2.79 ± 0.32	2.96 ± 0.38		
LDPDTMHARLRLSADRLTVRCGLL [TRIM14]	2.51 ± 0.16	2.48 ± 0.25		
DIKNPEITTNRFYGPQVNNISHTK [WASL]	3.19 ± 0.26	3.48 ± 0.41		
ALLQAMKDLDGMDADILGLKKSNS [FBF1]	2.83 ± 0.78	2.82 ± 0.29		
KLQYQLRNVRERIAKNLVEKGILT [GOLPH3L]	2.17 ± 0.16	2.28 ± 0.19		
DGAWCAGRNDLQQWIEVDARRLTR [CPXM2]	3.48 ± 0.35	3.95 ± 0.52		
PQCIKEEDTPSDNDSGICMSPESY [ATF4]	5.2 ± 0.23	5.28 ± 0.1		
RRFGAVACGVAMELYVFGGVRSRE [GAN]	3.04 ± 0.79	2.26 ± 0.15		
SEEAVREVHRLIEGKAPIISGVTK [TPPP]	4.44 ± 0.29	4.72 ± 0.14		
YYSCERAKKAMGYQPLVTMDDAME [NSDHL]	3.97 ± 0.34	3.71 ± 0.45		
WRMLRPQLVNSSADNMLEYKSWLK [PPEF2]	2.64 ± 0.49	2.7 ± 0.39		
SRGLHAWEISWPLEQRGTHAVVGV [SPSB2]	2.43 ± 0.4	2.17 ± 0.44		
LFILSTLVVDYIDEGRLVLEFSLL [SOAT1]	3.28 ± 0.57	2.88 ± 0.96		
RQWTVSDWGPCSGSCGQGRTIRHV [ADAMTSL2]	2.15 ± 0.23	2.826 ± 0.025		
MDTSHQPLLPAPPKTPMDGADCGI [LYSMD4]	5.04 ± 0.2	5.09 ± 0.33		
DTERLDDFHLSIHSDMAAIVKAMA [DVL3]	2.36 ± 0.2	2.49 ± 0.25		
HRGHCERRHRLGGVGAVPGPGTPT [ZBTB22]	4.2 ± 0.26	4.36 ± 0.16		
SDLLDEKEIAKNLIQPINHTTLQC [FEM1C]	3.83 ± 0.25	4.03 ± 0.39		
LSVSNNQEPDFIDDIEEKTPISNE [KMT2E]	4.69 ± 0.37	4.75 ± 0.21		
TEAESEQEGSSGMELSWGQSPGQP [TEX19]	5.43 ± 0.24	5.26 ± 0.25		

Sequence	protein stability index [1]	protein stability index [2]	protein stability index (treatment: DMSO, c terminus: native)	protein stability index (treatment: MLN4924 1 uM, 8 h, c terminus: native)
LEIVGREGVSLTAVLTTHHHWDHA [HAGHL]	2.59 ± 0.34	2.32 ± 0.44		
LLFEYPESSSPARGIAIVSVLVIL [KCNA4]	2.92 ± 0.2	3 ± 0.36		
LSDKSCQSFISWTGDGWEFKLADP [ETS2]	2.49 ± 0.22	2.59 ± 0.36		
AVPTDEARAFAEKNNLSFIETSAL [RAB11B]	3.31 ± 0.31	3.47 ± 0.54		
YGSGDTPGGPCDSTLGGDIRESDP [TBX6]	5.25 ± 0.31	5.27 ± 0.61		
NDGWTPLHVAAHYGRDSFVRLLLE [ASB7]	2.45 ± 0.18	2.59 ± 0.27		
KRYESHPVCADLQAKILQCYRENT [CHCHD3]	3.18 ± 0.23	3.55 ± 0.26		
KLEKSIDSYYRLVIHRALDREQVS [PCDHGA10]	2.55 ± 1	2.48 ± 0.84		
KAILKNISVLAFSVCFIFTITIGM [SLC29A1]	3.19 ± 0.29	2.96 ± 0.44		
PEKLIWGDQDPLSKIPFKILSGHE [WDR88]	3.43 ± 0.85	3.45 ± 0.44		
VYASDKEWIRFDQSNVLCSIFGIC [PTGFR]	2.56 ± 1.4	2.24 ± 0.78		
AQTNPTPGSLGPWKITIYDQENFQ [CRYBA1]	3.18 ± 0.41	3.3 ± 0.2		
DPQSGELPSERWNPTQNVRTILLS [CDC34]	3.31 ± 0.35	3.62 ± 0.43		
MDAAPGVDLSRILNEMRDQYEKMA [KRT17]	3.82 ± 0.18	3.8 ± 0.17		
LIVGLQGMDLNLEAEALAGTGLVL [HDAC6]	2.91 ± 0.48	2.6 ± 0.62		
LAQLLDTLLAIGTKLPENQAIQMR [INTS4]	3.12 ± 0.73	2.76 ± 0.5		
LLGLGVLLFSGGLSESETGPMEEV [PBXIP1]	2.22 ± 0.062	2.32 ± 0.31		
RNGGSLADAISENYRIMSYFKEAE [WEE1]	3.08 ± 0.36	3.2 ± 0.28		
TFAMVKGYFFPTSARDCKFTGNFF [DHCR7]	2.56 ± 0.39	2.71 ± 0.43		
DYKDRSVFGVPLTVNVQRTGQPLP [DLC1]	3.62 ± 0.069	3.52 ± 0.17		
